Source: publication PMC3839042

Legend:
[1] = biological target: human S100A2 (human) (UniProt P29034); assay: ITC
[2] = biological target: human S100B (human) (UniProt P04271); assay: ITC
human S100B (human), sequence (P04271 whole entry): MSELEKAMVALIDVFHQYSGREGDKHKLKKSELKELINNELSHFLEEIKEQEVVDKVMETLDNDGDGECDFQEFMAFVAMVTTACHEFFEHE

human S100A2 (human), sequence (P29034 whole entry): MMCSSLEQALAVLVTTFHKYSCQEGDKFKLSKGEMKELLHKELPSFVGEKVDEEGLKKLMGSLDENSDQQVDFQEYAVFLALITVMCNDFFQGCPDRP

stoichiometry N (peptides per S100A2 dimer) [1]: 2 | stoichiometry N (peptides per S100B dimer) [2]: 2
Substance: TRTK12 wild-type peptide (Ac-…-NH2)
